Tests used:
Assay in all cases: cell-based or functional assay
[1] = target: MRCKβ(h) (human) (UniProt Q9Y5S2)
[2] = target: Rsk2(h) (human) (UniProt P51812)
[3] = target: GRK6(h) (human) (UniProt P43250)
[4] = target: FGFR4(h) (human) (UniProt P22455)
[5] = target: cKit(V654A)(h) (human) (UniProt P10721)
[6] = target: EphB2(h) (human) (UniProt P29323)
[7] = target: PASK(h) (human) (UniProt Q96RG2)
[8] = target: T1, Flt1(h) (human) (UniProt P17948)
T1 sequence (looked up): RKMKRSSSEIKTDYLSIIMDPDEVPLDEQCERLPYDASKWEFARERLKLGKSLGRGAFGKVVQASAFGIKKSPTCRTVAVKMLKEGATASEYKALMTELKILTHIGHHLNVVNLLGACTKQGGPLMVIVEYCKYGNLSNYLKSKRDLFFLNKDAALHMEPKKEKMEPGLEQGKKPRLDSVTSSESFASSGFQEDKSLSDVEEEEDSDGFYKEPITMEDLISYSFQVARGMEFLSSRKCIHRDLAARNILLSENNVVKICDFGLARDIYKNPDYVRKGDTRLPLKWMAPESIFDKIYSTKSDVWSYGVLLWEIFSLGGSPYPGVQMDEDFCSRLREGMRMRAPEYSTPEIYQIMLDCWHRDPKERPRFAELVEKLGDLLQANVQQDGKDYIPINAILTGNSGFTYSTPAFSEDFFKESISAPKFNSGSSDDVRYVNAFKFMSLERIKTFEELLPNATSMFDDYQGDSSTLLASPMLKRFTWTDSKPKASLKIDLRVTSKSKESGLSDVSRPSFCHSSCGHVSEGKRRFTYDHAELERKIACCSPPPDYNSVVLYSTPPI

[9] = target: T2, SGK2(h) (human) (UniProt Q9HBY8)
T2 sequence (looked up): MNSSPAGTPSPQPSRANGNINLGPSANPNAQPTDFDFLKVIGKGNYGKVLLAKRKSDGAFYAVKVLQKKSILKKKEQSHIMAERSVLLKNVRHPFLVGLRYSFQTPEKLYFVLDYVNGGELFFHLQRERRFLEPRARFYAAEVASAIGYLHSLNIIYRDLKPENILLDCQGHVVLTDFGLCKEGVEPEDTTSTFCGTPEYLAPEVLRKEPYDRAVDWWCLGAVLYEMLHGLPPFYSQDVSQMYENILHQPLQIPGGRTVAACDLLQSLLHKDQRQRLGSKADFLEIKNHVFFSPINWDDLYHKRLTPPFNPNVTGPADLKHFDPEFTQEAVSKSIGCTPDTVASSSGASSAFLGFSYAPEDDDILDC

[10] = target: GSK3β(h) (human) (UniProt P49841)
[11] = target: DAPK2(h) (human) (UniProt Q9UIK4)
[12] = target: ZIPK(h) (human) (UniProt O43293)
[13] = target: Pyk2(h) (human) (UniProt Q14289)
[14] = target: Met(D1246N)(h) (human) (UniProt P08581)
[15] = target: CDK3/cyclinE(h) (human) (UniProt Q00526)
[16] = target: Syk(h) (human) (UniProt P43405)
[17] = target: JNK2α2(h) (human) (UniProt P45984)
[18] = target: cKit(D816H)(h) (human) (UniProt P10721)
Sequence of cKit(D816H)(h) (human) (P10721 544-976 D816H): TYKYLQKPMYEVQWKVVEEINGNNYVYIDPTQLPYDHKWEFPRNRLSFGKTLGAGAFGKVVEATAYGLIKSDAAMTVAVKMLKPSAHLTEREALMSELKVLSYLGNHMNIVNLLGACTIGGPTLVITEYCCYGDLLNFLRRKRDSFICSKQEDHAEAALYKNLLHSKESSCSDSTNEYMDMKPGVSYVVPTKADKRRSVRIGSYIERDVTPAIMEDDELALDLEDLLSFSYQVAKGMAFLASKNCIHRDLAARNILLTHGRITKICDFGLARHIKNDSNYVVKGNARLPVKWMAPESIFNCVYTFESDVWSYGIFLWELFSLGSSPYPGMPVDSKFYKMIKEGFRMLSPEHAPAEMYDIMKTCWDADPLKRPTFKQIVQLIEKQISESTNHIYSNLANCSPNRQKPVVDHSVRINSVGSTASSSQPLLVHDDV

[19] = target: MSK1(h) (human) (UniProt O75582)
[20] = target: PKBα(h) (human) (UniProt P31749)
Sequence of PKBα(h) (human) (P31749 whole entry): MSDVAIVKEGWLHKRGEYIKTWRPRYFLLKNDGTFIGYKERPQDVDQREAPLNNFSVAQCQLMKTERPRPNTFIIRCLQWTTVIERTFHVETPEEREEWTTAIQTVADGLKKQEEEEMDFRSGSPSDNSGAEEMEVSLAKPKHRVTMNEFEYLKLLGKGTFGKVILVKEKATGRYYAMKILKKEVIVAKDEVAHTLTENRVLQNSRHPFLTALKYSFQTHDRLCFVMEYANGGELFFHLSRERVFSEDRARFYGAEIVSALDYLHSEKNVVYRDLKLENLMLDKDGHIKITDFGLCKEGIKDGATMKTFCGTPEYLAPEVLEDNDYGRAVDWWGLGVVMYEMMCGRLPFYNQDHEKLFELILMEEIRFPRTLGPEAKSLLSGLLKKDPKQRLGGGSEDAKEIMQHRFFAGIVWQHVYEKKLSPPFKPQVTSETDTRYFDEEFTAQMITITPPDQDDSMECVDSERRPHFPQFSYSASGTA

[21] = target: T3, NLK(h) (human) (UniProt Q9UBE8)
T3 sequence (looked up): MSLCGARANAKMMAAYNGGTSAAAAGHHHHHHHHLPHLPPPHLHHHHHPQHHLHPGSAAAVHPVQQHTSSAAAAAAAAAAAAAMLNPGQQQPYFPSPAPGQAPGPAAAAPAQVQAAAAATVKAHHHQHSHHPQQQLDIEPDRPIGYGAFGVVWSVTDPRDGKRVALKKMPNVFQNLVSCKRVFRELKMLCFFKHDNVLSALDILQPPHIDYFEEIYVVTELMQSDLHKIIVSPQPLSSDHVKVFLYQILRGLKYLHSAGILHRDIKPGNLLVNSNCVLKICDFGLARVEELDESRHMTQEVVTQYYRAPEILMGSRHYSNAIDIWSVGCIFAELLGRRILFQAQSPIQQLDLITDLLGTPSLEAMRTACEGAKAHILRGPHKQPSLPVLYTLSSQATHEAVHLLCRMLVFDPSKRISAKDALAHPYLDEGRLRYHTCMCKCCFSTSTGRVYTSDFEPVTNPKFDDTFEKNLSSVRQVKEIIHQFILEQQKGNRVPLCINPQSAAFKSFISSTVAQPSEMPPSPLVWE

[22] = target: T4, NEK3(h) (human) (UniProt P51956)
T4 sequence (looked up): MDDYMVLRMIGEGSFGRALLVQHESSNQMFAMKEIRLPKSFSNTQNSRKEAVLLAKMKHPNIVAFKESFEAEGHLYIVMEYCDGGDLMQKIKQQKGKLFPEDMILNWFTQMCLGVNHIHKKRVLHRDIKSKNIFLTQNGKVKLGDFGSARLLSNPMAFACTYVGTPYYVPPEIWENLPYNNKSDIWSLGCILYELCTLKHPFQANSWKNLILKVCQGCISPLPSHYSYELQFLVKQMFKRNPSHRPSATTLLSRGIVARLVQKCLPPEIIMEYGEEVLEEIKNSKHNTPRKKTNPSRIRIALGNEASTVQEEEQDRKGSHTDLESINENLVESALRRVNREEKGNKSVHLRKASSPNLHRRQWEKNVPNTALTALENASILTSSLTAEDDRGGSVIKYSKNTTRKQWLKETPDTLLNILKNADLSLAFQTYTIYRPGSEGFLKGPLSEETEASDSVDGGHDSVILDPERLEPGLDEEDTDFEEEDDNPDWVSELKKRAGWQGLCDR

[23] = target: BTK(R28H)(h) (human) (UniProt Q06187)

Sequence of cKit(V654A)(h) (human) (P10721 544-976 V654A): as the sequence (P10721 544-976 D816H) above, with V111A, H273D counted along it
Sequence of FGFR4(h) (human) (P22455 442-753 limits assumed): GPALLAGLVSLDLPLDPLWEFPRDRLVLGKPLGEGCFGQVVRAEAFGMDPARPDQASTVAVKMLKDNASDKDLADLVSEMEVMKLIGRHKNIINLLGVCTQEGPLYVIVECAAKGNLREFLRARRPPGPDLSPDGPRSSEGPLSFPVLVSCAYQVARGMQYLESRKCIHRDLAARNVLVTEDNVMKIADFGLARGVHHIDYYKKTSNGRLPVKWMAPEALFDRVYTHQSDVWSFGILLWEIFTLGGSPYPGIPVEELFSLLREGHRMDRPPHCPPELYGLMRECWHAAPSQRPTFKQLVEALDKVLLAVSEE
Sequence of MRCKβ(h) (human) (Q9Y5S2 1-473 limits assumed): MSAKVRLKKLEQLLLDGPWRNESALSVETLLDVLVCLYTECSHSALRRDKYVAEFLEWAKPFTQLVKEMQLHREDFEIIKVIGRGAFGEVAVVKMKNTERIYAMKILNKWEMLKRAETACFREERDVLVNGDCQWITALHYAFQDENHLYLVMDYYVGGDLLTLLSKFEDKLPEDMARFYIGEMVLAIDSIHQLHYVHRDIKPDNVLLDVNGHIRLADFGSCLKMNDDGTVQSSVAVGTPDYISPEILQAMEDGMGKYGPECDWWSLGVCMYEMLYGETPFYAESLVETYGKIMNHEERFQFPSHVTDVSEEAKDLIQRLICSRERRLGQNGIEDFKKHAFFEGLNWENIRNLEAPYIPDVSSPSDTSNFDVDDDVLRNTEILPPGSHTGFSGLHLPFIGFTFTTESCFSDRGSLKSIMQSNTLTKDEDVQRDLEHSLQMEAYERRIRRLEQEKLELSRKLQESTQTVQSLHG
Sequence of Rsk2(h) (human) (P51812 whole entry): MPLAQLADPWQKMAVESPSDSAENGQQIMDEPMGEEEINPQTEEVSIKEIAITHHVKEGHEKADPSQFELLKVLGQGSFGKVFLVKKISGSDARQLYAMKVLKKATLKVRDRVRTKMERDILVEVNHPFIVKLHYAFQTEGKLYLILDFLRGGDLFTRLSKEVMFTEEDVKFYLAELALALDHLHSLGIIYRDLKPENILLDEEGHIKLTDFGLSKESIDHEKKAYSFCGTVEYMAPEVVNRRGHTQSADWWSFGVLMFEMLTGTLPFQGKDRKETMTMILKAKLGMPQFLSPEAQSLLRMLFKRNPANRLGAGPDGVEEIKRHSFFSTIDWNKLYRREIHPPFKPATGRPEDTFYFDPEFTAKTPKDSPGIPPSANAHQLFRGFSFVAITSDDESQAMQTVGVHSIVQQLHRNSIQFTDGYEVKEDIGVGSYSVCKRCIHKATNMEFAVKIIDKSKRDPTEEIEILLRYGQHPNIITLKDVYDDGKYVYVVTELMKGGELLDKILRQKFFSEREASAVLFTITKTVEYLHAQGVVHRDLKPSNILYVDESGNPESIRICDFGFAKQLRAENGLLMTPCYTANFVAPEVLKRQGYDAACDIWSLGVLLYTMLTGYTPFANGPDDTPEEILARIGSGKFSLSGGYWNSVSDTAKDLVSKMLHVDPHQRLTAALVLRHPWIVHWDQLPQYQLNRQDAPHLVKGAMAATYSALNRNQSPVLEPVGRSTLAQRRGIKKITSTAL
Sequence of EphB2(h) (human) (P29323 565-986 limits assumed): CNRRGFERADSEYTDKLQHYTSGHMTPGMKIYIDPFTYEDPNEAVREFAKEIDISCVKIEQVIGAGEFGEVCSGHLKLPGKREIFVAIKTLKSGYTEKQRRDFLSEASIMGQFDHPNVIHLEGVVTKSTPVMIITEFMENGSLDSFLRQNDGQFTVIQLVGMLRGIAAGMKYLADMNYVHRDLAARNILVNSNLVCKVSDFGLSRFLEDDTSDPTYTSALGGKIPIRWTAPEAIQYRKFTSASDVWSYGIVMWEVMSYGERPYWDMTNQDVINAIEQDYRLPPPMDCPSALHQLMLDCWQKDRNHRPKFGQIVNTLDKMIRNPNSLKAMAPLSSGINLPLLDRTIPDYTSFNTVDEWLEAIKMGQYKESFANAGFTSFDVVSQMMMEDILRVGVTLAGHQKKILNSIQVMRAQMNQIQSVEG

Row | Substance | % activity at 100 µM [1] | % activity at 100 µM [2] | % activity at 100 µM [3] | % activity at 100 µM [4] | % activity at 100 µM [5] | % activity at 100 µM [6] | % activity at 100 µM [7] | % activity at 100 µM [8] | % activity at 100 µM [9] | % activity at 100 µM [10] | % activity at 100 µM [11] | % activity at 100 µM [12] | % activity at 100 µM [13] | % activity at 100 µM [14] | % activity at 100 µM [15] | % activity at 100 µM [16] | % activity at 100 µM [17] | % activity at 100 µM [18] | % activity at 100 µM [19] | % activity at 100 µM [20] | also measured
1 | MMI-0300 (peptide) | 83% | 51% | 147% | 28% | 134% | 18% | 29% | 69% | 56% | 205% | 32% | 28% | 47% | 82% | 94% | 24% | 98% | 126% | 32% | 57% | % activity at 100 µM [21]: 87%; % activity at 100 µM [22]: 92%; % activity at 100 µM [23]: 74%
2 | MMI-0400 (peptide) | 71% | 38% | 141% | 19% | 150% | 22% | 28% | 48% | 98% | 202% | 16% | 13% | 34% | 31% | 92% | 9% | 96% | 143% | 28% | 67% | % activity at 100 µM [21]: 90%; % activity at 100 µM [22]: 85%; % activity at 100 µM [23]: 24%
3 | MMI-0500 (peptide) | -10% | 14% | 174% | 3% | 223% | 70% | 9% | 27% | -1% | 238% | 3% | 1% | 46% | 90% | 8% | 5% | 81% | 194% | 8% | 30% | % activity at 100 µM [21]: 19%; % activity at 100 µM [22]: 20%; % activity at 100 µM [23]: 10%
